The record followed here is the supplement of paper PMC10724198.

The subject of series [1] is Saccharomyces cerevisiae. In words: protein stability index of tFT-peptide fusion (C-terminal peptide) (PSI (0-1 scale)); higher = more stable (slower turnover). The following applies: genetic background: wild type; temperature: 30 C.
Series [2] concerns Saccharomyces cerevisiae. Described as above. As for the experimental part:
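MPS profiling in S. cerevisiae of the tFT-X12 degron library: putative degron peptides plus stable controls, 12 aa, fused to the C-terminus of a sfGFP-mCherry timer. Cells are FACS-sorted into 8 mCherry/sfGFP bins and deep-sequenced. PSI runs from 0 (unstable) to 1 (stable). Backgrounds are wild type, das1Δ and doa10Δ at 30 °C, and wild type, das1Δ, cdc34-1 and cdc53-1 at 37 °C; 2-3 technical replicates each.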

The mark [3] stands for this setting: genetic background: cdc34-1, temperature: 37 C.
Where [4] appears, read: genetic background: cdc53-1, temperature: 37 C.
Setting [5] is: genetic background: das1 deletion, temperature: 30 C.
The mark [6] stands for this setting: genetic background: das1 deletion, temperature: 37 C.
Setting [7] is: genetic background: doa10 deletion, temperature: 30 C.
[8] abbreviates: genetic background: wild type, temperature: 30 C.
Where [9] appears, read: genetic background: wild type, temperature: 37 C.

± gives the standard deviation of the averaged measurements.
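Note: PSI is a weighted mean of sequencing reads over stability bins, variants kept only with over 10 reads, mCherry proximal and sfGFP distal, peptide attached via GGGS linker.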

With AFWLFSGIARLA, the protein stability index in the series with Saccharomyces cerevisiae [1] stood at 0.407 ± 0.041; with Saccharomyces cerevisiae [2] (setting [3]), 0.568 ± 0.011; in the series on Saccharomyces cerevisiae [2] (setting [4]), 0.66 ± 0.023; with Saccharomyces cerevisiae [2] (setting [5]), 0.472 ± 0.014; in the series with Saccharomyces cerevisiae [2] (setting [6]), 0.642 ± 0.024; in the series on Saccharomyces cerevisiae [2] (setting [7]), 0.221 ± 0.014. The results for the protein stability index in the series on Saccharomyces cerevisiae [2] (setting [8]) and in the series on Saccharomyces cerevisiae [2] (setting [9]) were 0.277 ± 0.011 and 0.5014 ± 0.0035, respectively.

As to AGESLRAIAVLY, the protein stability index in the series on Saccharomyces cerevisiae [1] was determined as 0.42 ± 0.018; in the series on Saccharomyces cerevisiae [2] (setting [3]), 0.647 ± 0.06; in the series on Saccharomyces cerevisiae [2] (setting [4]), 0.715 ± 0.025; with Saccharomyces cerevisiae [2] (setting [5]) it was 0.588 ± 0.0077; in the series on Saccharomyces cerevisiae [2] (setting [6]) it was 0.6605 ± 0.004; with Saccharomyces cerevisiae [2] (setting [7]) it was 0.258 ± 0.016. The protein stability index in the series with Saccharomyces cerevisiae [2] (setting [8]) was 0.292 ± 0.018; in the series with Saccharomyces cerevisiae [2] (setting [9]) it was 0.47738 ± 0.00044.

For the sequence AGLTLLWPLCLL, the protein stability index turned out to be 0.3669 ± 0.0023 with Saccharomyces cerevisiae [1]; 0.28 ± 0.0058 in the series with Saccharomyces cerevisiae [2] (setting [3]); 0.261 ± 0.0053 with Saccharomyces cerevisiae [2] (setting [4]); 0.277 ± 0.022 in the series on Saccharomyces cerevisiae [2] (setting [5]); 0.394 ± 0.013 in the series on Saccharomyces cerevisiae [2] (setting [6]); 0.591 ± 0.01 in the series with Saccharomyces cerevisiae [2] (setting [7]). Besides, the protein stability index was 0.265 ± 0.034 in the series on Saccharomyces cerevisiae [2] (setting [8]) and 0.353 ± 0.013 with Saccharomyces cerevisiae [2] (setting [9]).

AGTLLLGYGILA: the protein stability index with Saccharomyces cerevisiae [1] came out at 0.43845 ± 0.00034; in the series on Saccharomyces cerevisiae [2] (setting [3]), 0.454 ± 0.019; in the series with Saccharomyces cerevisiae [2] (setting [4]) it was 0.464 ± 0.038; with Saccharomyces cerevisiae [2] (setting [5]), 0.342 ± 0.023; in the series with Saccharomyces cerevisiae [2] (setting [6]) it was 0.5107 ± 0.00054; with Saccharomyces cerevisiae [2] (setting [7]), 0.309 ± 0.017. Moreover, the results for the protein stability index in the series with Saccharomyces cerevisiae [2] (setting [8]) and in the series with Saccharomyces cerevisiae [2] (setting [9]) were 0.349 ± 0.023 and 0.486 ± 0.0055, respectively.

Regarding AGVRCPLFWLVC, the protein stability index in the series on Saccharomyces cerevisiae [1] amounted to 0.156 ± 0.0027; in the series with Saccharomyces cerevisiae [2] (setting [3]), 0.461 ± 0.049; with Saccharomyces cerevisiae [2] (setting [4]), 0.622 ± 0.032; in the series with Saccharomyces cerevisiae [2] (setting [5]), 0.498 ± 0.033; in the series on Saccharomyces cerevisiae [2] (setting [6]), 0.632 ± 0.013; in the series on Saccharomyces cerevisiae [2] (setting [7]), 0.131 ± 0.012. Besides, the protein stability index came to 0.138 ± 0.0075 with Saccharomyces cerevisiae [2] (setting [8]) and 0.148 ± 0.01 in the series with Saccharomyces cerevisiae [2] (setting [9]).

On to AHPTLILTNKIA, for which the protein stability index in the series with Saccharomyces cerevisiae [1] stood at 0.237 ± 0.0044; in the series with Saccharomyces cerevisiae [2] (setting [3]), 0.578 ± 0.13; in the series on Saccharomyces cerevisiae [2] (setting [4]), 0.705 ± 0.063; in the series with Saccharomyces cerevisiae [2] (setting [5]), 0.643 ± 0.025; with Saccharomyces cerevisiae [2] (setting [6]), 0.712 ± 0.044; with Saccharomyces cerevisiae [2] (setting [7]), 0.0637 ± 0.025. The figures for the protein stability index with Saccharomyces cerevisiae [2] (setting [8]) and in the series with Saccharomyces cerevisiae [2] (setting [9]) were 0.104 ± 0.044 and 0.121 ± 0.023, respectively.

For ALLIYFLCRCIP, the protein stability index in the series with Saccharomyces cerevisiae [1] came out at 0.44 ± 0.034; in the series with Saccharomyces cerevisiae [2] (setting [3]) it was 0.4326 ± 0.00094; with Saccharomyces cerevisiae [2] (setting [4]) it was 0.476 ± 0.011; with Saccharomyces cerevisiae [2] (setting [5]), 0.343 ± 0.033; in the series with Saccharomyces cerevisiae [2] (setting [6]), 0.522 ± 0.016; in the series on Saccharomyces cerevisiae [2] (setting [7]), 0.301 ± 0.015. In addition, the protein stability index with Saccharomyces cerevisiae [2] (setting [8]) is 0.33 ± 0.035; in the series on Saccharomyces cerevisiae [2] (setting [9]) it was 0.483 ± 0.032.

Turning to ARRFLVRRFILF, the protein stability index in the series on Saccharomyces cerevisiae [1] was determined as 0.282 ± 0.0087; with Saccharomyces cerevisiae [2] (setting [3]), 0.545 ± 0.019; in the series on Saccharomyces cerevisiae [2] (setting [4]), 0.65822 ± 0.00018; in the series with Saccharomyces cerevisiae [2] (setting [5]) it was 0.586 ± 0.0066; in the series with Saccharomyces cerevisiae [2] (setting [6]), 0.683 ± 0.026; in the series with Saccharomyces cerevisiae [2] (setting [7]), 0.187 ± 0.018. The protein stability index in the series on Saccharomyces cerevisiae [2] (setting [8]) was 0.189 ± 0.021; with Saccharomyces cerevisiae [2] (setting [9]), 0.326 ± 0.033.

With ASHLGLGCLVVC, the protein stability index in the series on Saccharomyces cerevisiae [1] is 0.491 ± 0.0059; with Saccharomyces cerevisiae [2] (setting [3]) it was 0.601 ± 0.089; with Saccharomyces cerevisiae [2] (setting [4]), 0.571 ± 0.045; in the series with Saccharomyces cerevisiae [2] (setting [5]) it was 0.426 ± 0.018; in the series with Saccharomyces cerevisiae [2] (setting [6]), 0.604 ± 0.015; in the series on Saccharomyces cerevisiae [2] (setting [7]), 0.389 ± 0.028. For the same sequence, the protein stability index came to 0.408 ± 0.02 with Saccharomyces cerevisiae [2] (setting [8]) and 0.579 ± 0.021 in the series with Saccharomyces cerevisiae [2] (setting [9]).

As for AVRLPFPLLVHL, the protein stability index in the series on Saccharomyces cerevisiae [1] was 0.473 ± 0.028; with Saccharomyces cerevisiae [2] (setting [3]) it was 0.205 ± 0.012; with Saccharomyces cerevisiae [2] (setting [4]) it was 0.195 ± 0.0033; with Saccharomyces cerevisiae [2] (setting [5]) it was 0.283 ± 0.031; with Saccharomyces cerevisiae [2] (setting [6]), 0.386 ± 0.0046; in the series on Saccharomyces cerevisiae [2] (setting [7]), 0.427 ± 0.016. Also, the protein stability index is 0.276 ± 0.053 with Saccharomyces cerevisiae [2] (setting [8]) and 0.337 ± 0.029 in the series on Saccharomyces cerevisiae [2] (setting [9]).

Turning to AVVCSRLVLFCL, the protein stability index worked out at 0.512 ± 0.026 with Saccharomyces cerevisiae [1]; 0.591 ± 0.042 with Saccharomyces cerevisiae [2] (setting [3]); 0.609 ± 0.021 in the series on Saccharomyces cerevisiae [2] (setting [4]); 0.53 ± 0.016 in the series with Saccharomyces cerevisiae [2] (setting [5]); 0.6322 ± 0.0018 with Saccharomyces cerevisiae [2] (setting [6]); 0.433 ± 0.018 with Saccharomyces cerevisiae [2] (setting [7]). The protein stability index in the series on Saccharomyces cerevisiae [2] (setting [8]) came out at 0.446 ± 0.025; with Saccharomyces cerevisiae [2] (setting [9]), 0.588 ± 0.021.

Consider CALLLLSVRAGQ, for which the protein stability index with Saccharomyces cerevisiae [1] amounted to 0.474 ± 0.019; with Saccharomyces cerevisiae [2] (setting [3]), 0.5373 ± 0.00093; in the series on Saccharomyces cerevisiae [2] (setting [4]) it was 0.57 ± 0.02; with Saccharomyces cerevisiae [2] (setting [5]) it was 0.432 ± 0.04; in the series with Saccharomyces cerevisiae [2] (setting [6]) it was 0.5912 ± 0.0029; in the series on Saccharomyces cerevisiae [2] (setting [7]), 0.415 ± 0.032. Also, the protein stability index was 0.433 ± 0.024 in the series on Saccharomyces cerevisiae [2] (setting [8]) and 0.565 ± 0.02 in the series with Saccharomyces cerevisiae [2] (setting [9]).

Consider CCSRFLMLRILV, for which the protein stability index is 0.146 ± 0.014 in the series on Saccharomyces cerevisiae [1]; 0.197 ± 0.062 in the series with Saccharomyces cerevisiae [2] (setting [3]); 0.208 ± 0.015 in the series with Saccharomyces cerevisiae [2] (setting [4]); 0.287 ± 0.041 with Saccharomyces cerevisiae [2] (setting [5]); 0.438 ± 0.026 in the series with Saccharomyces cerevisiae [2] (setting [6]); 0.118 ± 0.0037 with Saccharomyces cerevisiae [2] (setting [7]). For the same sequence, the protein stability index amounted to 0.1 ± 0.0099 in the series on Saccharomyces cerevisiae [2] (setting [8]) and 0.126 ± 0.0093 in the series on Saccharomyces cerevisiae [2] (setting [9]).

Regarding CFFFCSLFLSFL, the protein stability index was 0.3662 ± 0.0032 in the series on Saccharomyces cerevisiae [1]; 0.439 ± 0.022 in the series with Saccharomyces cerevisiae [2] (setting [3]); 0.452 ± 0.011 in the series with Saccharomyces cerevisiae [2] (setting [4]); 0.436 ± 0.022 in the series with Saccharomyces cerevisiae [2] (setting [5]); 0.498 ± 0.01 in the series on Saccharomyces cerevisiae [2] (setting [6]); 0.4065 ± 0.001 with Saccharomyces cerevisiae [2] (setting [7]). For the same sequence, the protein stability index in the series with Saccharomyces cerevisiae [2] (setting [8]) worked out at 0.35 ± 0.0098; in the series with Saccharomyces cerevisiae [2] (setting [9]), 0.431 ± 0.015.

Regarding CFFMVGFVFYFV, the protein stability index in the series on Saccharomyces cerevisiae [1] was determined as 0.296 ± 0.014; with Saccharomyces cerevisiae [2] (setting [3]), 0.286 ± 0.031; with Saccharomyces cerevisiae [2] (setting [4]), 0.412 ± 0.027; in the series with Saccharomyces cerevisiae [2] (setting [5]), 0.291 ± 0.039; in the series with Saccharomyces cerevisiae [2] (setting [6]), 0.505 ± 0.017; in the series with Saccharomyces cerevisiae [2] (setting [7]) it was 0.288 ± 0.014. Also, the protein stability index stood at 0.294 ± 0.03 in the series on Saccharomyces cerevisiae [2] (setting [8]) and 0.438 ± 0.0094 in the series with Saccharomyces cerevisiae [2] (setting [9]).
